Reference: US20030165488A1
Like-named read-outs stand apart in the source and are kept apart here.

How the values were obtained:
[1] = target: DEVD-R110 substrate (Homogeneous Caspase Assay, Roche Biochemicals); experiment: cell-based or functional assay
[2] = test system: T1, ΔCARD caspase-12 (RIK-5), 6-His fusion protein expressed in E. coli
T1 sequence: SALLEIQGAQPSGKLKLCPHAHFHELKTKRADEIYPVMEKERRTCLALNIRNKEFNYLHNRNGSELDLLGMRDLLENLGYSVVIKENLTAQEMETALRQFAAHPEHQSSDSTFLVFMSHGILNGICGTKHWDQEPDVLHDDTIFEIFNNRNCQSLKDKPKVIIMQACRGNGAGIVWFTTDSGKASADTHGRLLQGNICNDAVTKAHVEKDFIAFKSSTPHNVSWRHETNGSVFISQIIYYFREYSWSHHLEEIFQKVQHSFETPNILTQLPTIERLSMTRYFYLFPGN

[3] = test system: T2, hCaspase-12 (recombinant human caspase-12 containing the Ser-205 to Gly mutation), 6-His fusion protein expressed in E. coli
T2 sequence: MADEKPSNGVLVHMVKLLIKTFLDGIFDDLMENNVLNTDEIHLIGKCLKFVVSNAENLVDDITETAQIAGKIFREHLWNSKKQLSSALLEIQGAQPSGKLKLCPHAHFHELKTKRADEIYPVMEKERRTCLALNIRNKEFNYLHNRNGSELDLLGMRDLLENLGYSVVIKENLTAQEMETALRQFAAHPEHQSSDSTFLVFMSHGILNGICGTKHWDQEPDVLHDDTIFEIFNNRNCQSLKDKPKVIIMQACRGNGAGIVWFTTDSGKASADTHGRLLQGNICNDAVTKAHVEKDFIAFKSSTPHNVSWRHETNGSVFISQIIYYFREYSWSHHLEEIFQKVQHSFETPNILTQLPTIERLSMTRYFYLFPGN

[4] = target: T3, DEVD-R110 substrate (Homogeneous Caspase Assay, Roche Biochemicals)
T3 chain: DEVD

[5] = target: T4, procaspase-3 immunoprecipitated from SH-EP cell lysates, P42574
T4 chain: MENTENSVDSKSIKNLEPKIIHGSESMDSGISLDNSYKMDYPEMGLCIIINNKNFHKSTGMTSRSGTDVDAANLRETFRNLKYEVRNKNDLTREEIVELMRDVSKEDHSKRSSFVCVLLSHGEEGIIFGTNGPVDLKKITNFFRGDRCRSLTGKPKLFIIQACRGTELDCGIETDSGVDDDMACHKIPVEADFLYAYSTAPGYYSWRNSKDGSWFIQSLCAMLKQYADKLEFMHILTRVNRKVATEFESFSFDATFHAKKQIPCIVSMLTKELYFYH

“control (non-caspase protein) preparation” was tested, and the Measured fluorescence intensity (RFU), free rhodamine-110 released from DEVD-R110 [1] was 31 RFU.

For calpain II (Calbiochem), the “cleavage of human caspase-12, Western blot” value [2] was “calpain II cleaves both hCaspase-12 and the ?CARD variant and that this cleavage is calcium dependent” and the “cleavage of human caspase-12, Western blot” value [3] was “calpain II cleaves both hCaspase-12 and the ?CARD variant and that this cleavage is calcium dependent”.

B1: hCaspase-12 (recombinant human caspase-12 containing the Ser-205 to Gly mutation), 6-His fusion protein expressed in E. coli (protein)
chain: MADEKPSNGVLVHMVKLLIKTFLDGIFDDLMENNVLNTDEIHLIGKCLKFVVSNAENLVDDITETAQIAGKIFREHLWNSKKQLSSALLEIQGAQPSGKLKLCPHAHFHELKTKRADEIYPVMEKERRTCLALNIRNKEFNYLHNRNGSELDLLGMRDLLENLGYSVVIKENLTAQEMETALRQFAAHPEHQSSDSTFLVFMSHGILNGICGTKHWDQEPDVLHDDTIFEIFNNRNCQSLKDKPKVIIMQACRGNGAGIVWFTTDSGKASADTHGRLLQGNICNDAVTKAHVEKDFIAFKSSTPHNVSWRHETNGSVFISQIIYYFREYSWSHHLEEIFQKVQHSFETPNILTQLPTIERLSMTRYFYLFPGN
For B1, the “Measured fluorescence intensity (RFU), free rhodamine-110 released from DEVD-R110” value [4] was 807 for hCaspase-12 and the “procaspase-3 processing, Western blot with antibody to full-length caspase-3” value [5] was “when procaspase-3 was incubated with recombinant human caspase-12 or the ?CARD variant, lower molecular weight bands indicative of cleaved mature subunits were observed”.

B2: ΔCARD caspase-12 (RIK-5), 6-His fusion protein expressed in E. coli (protein)
chain: SALLEIQGAQPSGKLKLCPHAHFHELKTKRADEIYPVMEKERRTCLALNIRNKEFNYLHNRNGSELDLLGMRDLLENLGYSVVIKENLTAQEMETALRQFAAHPEHQSSDSTFLVFMSHGILNGICGTKHWDQEPDVLHDDTIFEIFNNRNCQSLKDKPKVIIMQACRGNGAGIVWFTTDSGKASADTHGRLLQGNICNDAVTKAHVEKDFIAFKSSTPHNVSWRHETNGSVFISQIIYYFREYSWSHHLEEIFQKVQHSFETPNILTQLPTIERLSMTRYFYLFPGN
With B2 the “Measured fluorescence intensity (RFU), free rhodamine-110 released from DEVD-R110” value [4] was 445 for ?CARD.
